Drawing on patent publication US20160075733A1, this text covers Kd for one substance.

For the experiment, the target named is low density lipoprotein receptor (LDLR) expressed on HEK293 cells transfected with LDLR modified mRNA (mRNA SEQ ID NO: 21463) (human) (UniProt P01130). Briefly: Flow cytometry (FACS): increasing amounts of BODIPY-LDL on HEK293 cells transfected with LDLR mRNA, 1.0 h at 37 C. On the technique in general: A flow cytometer gives signals particle by particle.
Chain of low density lipoprotein receptor (LDLR) expressed on HEK293 cells transfected with LDLR modified mRNA (mRNA SEQ ID NO: 21463) (human) (P01130 22-860): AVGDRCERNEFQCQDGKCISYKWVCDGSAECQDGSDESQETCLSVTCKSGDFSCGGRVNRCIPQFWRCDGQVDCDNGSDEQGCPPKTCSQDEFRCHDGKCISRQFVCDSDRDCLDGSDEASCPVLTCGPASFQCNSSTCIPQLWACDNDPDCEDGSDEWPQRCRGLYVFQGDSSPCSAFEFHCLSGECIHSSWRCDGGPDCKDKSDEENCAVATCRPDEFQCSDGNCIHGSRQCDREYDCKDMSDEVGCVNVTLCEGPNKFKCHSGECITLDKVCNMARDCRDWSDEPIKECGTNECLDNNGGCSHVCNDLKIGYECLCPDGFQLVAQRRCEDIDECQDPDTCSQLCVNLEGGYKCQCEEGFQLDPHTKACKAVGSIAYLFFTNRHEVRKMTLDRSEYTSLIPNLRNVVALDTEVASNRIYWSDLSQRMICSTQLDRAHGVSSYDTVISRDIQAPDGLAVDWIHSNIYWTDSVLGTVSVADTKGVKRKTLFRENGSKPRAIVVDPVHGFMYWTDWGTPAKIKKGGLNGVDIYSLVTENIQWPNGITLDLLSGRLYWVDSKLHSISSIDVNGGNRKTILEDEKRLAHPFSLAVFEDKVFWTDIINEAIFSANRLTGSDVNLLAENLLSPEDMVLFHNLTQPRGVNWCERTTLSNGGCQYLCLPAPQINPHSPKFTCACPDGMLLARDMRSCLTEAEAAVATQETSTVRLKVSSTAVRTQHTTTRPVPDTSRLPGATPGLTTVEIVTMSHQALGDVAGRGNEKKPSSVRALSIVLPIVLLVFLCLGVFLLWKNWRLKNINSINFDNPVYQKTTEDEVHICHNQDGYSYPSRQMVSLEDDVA

The term Kd denotes the concentration at which binding is half-saturated. “BODIPY-labeled LDL (low density lipoprotein) (from UniProt P04114 28-4563) (ligand)” returned a Kd of 0.06 µg/mL.
